Columns and labels:
[1] = target: human PCSK9 (wild-type) (human, UniProt Q8NBP7 31-692, biotinylated in the ELISA formats (sites not given); untagged and unlabelled in Biacore/KinExA); assay: cell-based or functional assay
[2] = target: human PCSK9 D374Y mutant (human, UniProt Q8NBP7 31-692, biotinylated in the LDLR binding ELISAs (sites not given)); assay: cell-based or functional assay

EC50, block of WT PCSK9-mediated decrease in LDL uptake in HepG2 cells (BODIPY-LDL) [1]: 124 nM
EC50, block of D374Y PCSK9-mediated decrease of LDL uptake in HepG2 cells (BODIPY-LDL) [2]: 35.3 nM
B1: 11F1 anti-PCSK9 antibody (antibody, V domains shown)
VH: EVQLVESGGGLVQPGGSLRLSCAASGFTFSNYWMSWVRQAPGKGLEWVASIKQDGSEKYYVDSVKGRFAISRDNAKNSLFLQMNSLRAEDTAVYYCARDLVLMVYDIDYYYYGMDVWGQGTTVTVSS
VL: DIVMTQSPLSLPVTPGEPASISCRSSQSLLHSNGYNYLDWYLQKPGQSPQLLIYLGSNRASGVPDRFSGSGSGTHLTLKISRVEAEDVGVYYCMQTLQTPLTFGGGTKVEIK
